Source: patent US20250375530A1, “ROR1/EGFR BI-SPECIFIC ANTIGEN BINDING MOLECULES” (ALMAC DISCOVERY LIMITED, priority 2022, published 2025)
Residue numbers refer to the chain shown, from its start.

B1: P3A1 G1 NAG8: P3A1 G1 loop variant VNAR, SEQ ID NO: 81 (protein)
chain: TRVDQSPSSLSASVGDRVTITCVLTGTKYGLYATYWYRKNPGSPNKDRMIIGGRYSESVNNGTKSFTLTISSLQPEDSATYYCRAREARHPWLRQWYDGAGTKVEIKQACKAHHHHHHGAEFEQKLISEEDLG
B2: P3A1 G1: humanised version of the ROR1 binding VNAR P3A1, SEQ ID NO: 114 (protein)
chain: TRVDQTPSSLSASVGDRVTITCVLTDTSYGLYSTYWYRKNPGSSNKEQISISGRYSESVNKGTKSFTLTISSLQPEDSATYYCRAREARHPWLRQWYDGAGTKVEIKQASGAHHHHHHGAEFEQKLISEEDL
B3: P3A1 G1 AE3: P3A1 G1 loop variant VNAR, SEQ ID NO: 77 (protein)
chain: TRVDQSPSSLSASVGDRVTITCVLTGTRYGLYSTYWYRKNPGSSDEERISISGRYSESVNKGTKSFTLTISSLQPEDSATYYCRAREARHPWLRQWYDGAGTKVEIKQACKAHHHHHHG
B4: P3A1 G1 NAC6: P3A1 G1 loop variant VNAR, SEQ ID NO: 79 (protein)
chain: B3 chain with G26D, G30A, S44T, S52G, T63S

Assay: Analytical SEC of P3A1 loop variants (Superdex 75 increase 10/300 GL, PBS pH 7.4)
Type: physicochemical
Method: Chromatography was carried out in PBS pH 7.4.

| Molecule | % monomer by SEC [%] | SEC elution volume [mL] |
| --- | --- | --- |
| B1 | 100 | 14.8 |
| B2 | 100 | 15.47 |
| B3 | 100 | 17.3 |
| B4 | 100 | 17.3 |
